The values that follow come from patent US20110274697A1, “NOVEL USES” (priority 2009, published 2011).

Test [1] concerns the target T1, CD20 on JVM-3 cells (Homo sapiens, UniProt P11836).
T1 construct: medium level expression profile of CD20 on JVM-3 cells; endogenous in cells; host or cells: JVM-3 cells
T1 sequence (P11836 1-297): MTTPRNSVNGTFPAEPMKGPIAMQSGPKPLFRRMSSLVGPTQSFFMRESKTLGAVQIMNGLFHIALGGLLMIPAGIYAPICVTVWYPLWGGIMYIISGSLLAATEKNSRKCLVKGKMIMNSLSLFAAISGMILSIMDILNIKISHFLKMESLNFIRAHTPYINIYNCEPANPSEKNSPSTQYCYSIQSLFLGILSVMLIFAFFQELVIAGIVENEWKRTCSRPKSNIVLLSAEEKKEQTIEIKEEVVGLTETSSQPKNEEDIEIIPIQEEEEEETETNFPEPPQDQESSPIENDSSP
Put plainly: FACS binding of fluorescently labeled anti-CD20 antibodies to JVM-3 cells. Particulars: fluorescently labeled antibody, BD FACSCanto, FIG. 2. Here is the method:
One microgram of each antibody was prepared in PBS and five microliters of the Zenon human IgG labeling reagent (Component A) was added to the antibody solution. The mixture was incubated for five minutes at room temperature and then five microliters of the Zenon blocking reagent (Component B) was added to the reaction mixture. After another five minutes at room temperature the complexes were ready to be used. 5×10^6 cells/ml of viable JVM-3 cells were resuspended in PBS. 100 ul of the cells were added to each tube. 10 ul of human IgG was added to block non-specific binding. The cells and human IgG were incubated for 10 minutes. […] The mixture was incubated for an additional 30 minutes on ice in the dark. Then 500 ul of PBS was added to the cells and they were centrifuged for 5 minutes at 1000 rpm. The supernatant was removed and 500 ul of PBS was added and the cells were centrifuged again. Again the supernatant was removed and the cells resuspended in 300 ul of PBS. The cells were analyzed on a BD FACSCanto.

The subject of test [2] is cells with low CD20 density. Particulars: compared to rituximab; especially in cells with low CD20 density, as in CLL; cited from earlier work.

On to “ofatumumab: new generation, human monoclonal antibody that targets a membrane proximal, small loop epitope of the CD20 molecule; 2F2 antibody in WO2004/035607”, for which the “receptor bound on the cell surface” value in test [1] was “bound more receptors on the cell surface than rituxan antibody did”. In addition, the “induction of tumor cell lysis by CDC activity” value in test [2] is recorded as “superior induction of tumor cell lysis by CDC”.
